What was measured:
[1] = system: A549 cell line (human alveolar epithelial cancer cell line); experiment: Cytotoxicity assay (WST assay), A549 cell line; format: cell-based; conditions: Example 6, 24 h, light chain not bound with copper ions set to 100%
Protocol: (§1) The cytotoxicity of each complex-containing composition to cancer cells was tested using cancer cell lines. As the cancer cell lines, A549 cell line (human alveolar epithelial cancer cell line), ES-2 cell line (human ovarian cancer cell line), MOLT-4 cell line (human acute lymphoblastic leukemia T cell line), BxPC-3 cell line (human pancreatic adenocarcinoma cell line), SNU-1 cell line (human metastatic gastric cancer cell line), and PANC-1 cell line (human pancreatic cancer cell line) were used.
(§2) All of these cell lines were purchased from ATCC (American Type Culture Collection). Here, the A549 cell line was cultured using a 10% FCS (fetal calf serum)-containing F-12K culture medium by a general method, the ES-2 cell line was cultured using a 10% FCS-containing McCoy's 5A culture medium by a general method, each of the MOLT-4 cell line, SNU-1 cell line, and BxPC-3 cell line was cultured using a 10% FCS-containing RPMI-1640 culture medium by a general method, the PANC-1 cell line was cultured using a 10% FCS-containing DMEM culture medium by a general method, and the WI-38 cell line was cultured using a 10% FCS-containing EMEM culture medium by a general method.
(§3) First, after being recovered by thawing the frozen cancer cell lines, the recovered cancer cell lines were seeded in a 96-well plate by 100 μL to be 5×10^3 cells/well (the number of seeds was appropriately adjusted by cell species). After culturing was carried out at 37° C. for 24 hours, a culture medium to be added to the 96-well plate was removed by decantation, and then each complex-containing composition prepared at a concentration of about 1 mg/mL was added to each well by 100 μL. After culturing was carried out for 24 hours or 48 hours from the addition of the complex-containing composition (after cells are planted and cultivated for 48 hours or 72 hours), a WST-1 reagent (manufactured by Roche Inc.) was added to each well by 10 μL and incubated for 1, 1.5, and 2 hours to form a formazan dye, and then the absorbance (Abs at 450 nm) of the formazan dye was measured (WST assay). As a control, a human antibody κ type light chain not bound to metal ions or PBS was added instead of the complex-containing composition and cultured for 24 hours or 48 hours, and then WST assay was carried out. Based on the results of the obtained absorbance, the cell survival rate of the well added with the human antibody κ type light chain not bound to metal ions or the well added with the PBS was set to 100%, and the cell survival rate of each well was determined, so as to evaluate the cytotoxicity of the added complex-containing composition.

[2] = system: ES-2 cell line (human ovarian cancer cell line); experiment: Cytotoxicity assay (WST assay), ES-2 cell line; format: cell-based; conditions: Example 6, 24 h, light chain not bound with copper ions set to 100%
Protocol: as §1, §2, §3

[3] = system: MOLT-4 cell line (human acute lymphoblastic leukemia T cell line); experiment: Cytotoxicity assay (WST assay), MOLT-4 cell line; format: cell-based; conditions: Example 6, 24 h, light chain not bound with copper ions set to 100%
Protocol: as §1, §2, §3
Meanwhile, in the case of the MOLT-4 cell line, from the time cells were seeded in the 96-well plate, each complex-containing composition prepared at a concentration of about 1 mg/mL was added to each well by 100 μL and cultured for 24 hours or 48 hours, and then WST assay was carried out.

[4] = system: SNU-1 cell line (human metastatic gastric cancer cell line); experiment: Cytotoxicity assay (WST assay), SNU-1 cell line; format: cell-based; conditions: 24 h, light chain not bound with copper ions set to 100%
Protocol: as §1
(§4) All of these cell lines were purchased from ATCC (American Type Culture Collection). […]
(§5) First, after being recovered by thawing the frozen cancer cell lines, the recovered cancer cell lines were seeded in a 96-well plate by 100 μL to be 5×10^3 cells/well (the number of seeds was appropriately adjusted by cell species). […] After culturing was carried out for 24 hours or 48 hours from the addition of the complex-containing composition (after cells are planted and cultivated for 48 hours or 72 hours), a WST-1 reagent (manufactured by Roche Inc.) was added to each well by 10 μL and incubated for 1, 1.5, and 2 hours to form a formazan dye, and then the absorbance (Abs at 450 nm) of the formazan dye was measured (WST assay). […]

[5] = system: B-16 cell line (mouse melanoma-derived cell) subcutaneous tumor; experiment: Cytotoxicity assay in tumor-bearing mouse model, B-16 cell line transplanted; format: in vivo; conditions: B-16-transplanted mouse; 32.3 μg per mouse injected into subcutaneous tumor, total of 10 times from 4th day; n=2
Protocol: [Cytotoxicity Assay in Tumor-Bearing Mouse Model]
The cytotoxicity of each complex-containing composition to cancer cells in a tumor-bearing mouse model was tested using tumor-bearing mouse models.
First, the ES-2 cell line (human ovarian cancer-derived cell) or the B-16 cell line (mouse melanoma-derived cell) was subcutaneously transplanted into a mouse to a concentration of 2.5×10^6 cells/mouse. The complex-containing composition was administered against tumors subcutaneously established in the mouse from the 4th day after cancer cell transplantation. The administration of the complex-containing composition was carried out by directly injecting the complex-containing composition into a plurality of sites in the subcutaneous tumor from the outside of the mouse body using a syringe. […]
The volume of the subcutaneous tumor over time was measured from the outside of the mouse body, the volume of the subcutaneous tumor at the 1st day after cancer cell transplantation (next day after transplantation) was set to 1, and the relative tumor volume was determined, so as to evaluate the cytotoxicity of the complex-containing composition to cancer cells in the tumor-bearing mouse model. […]

[6] = system: BxPC-3 cell line (human pancreatic adenocarcinoma cell line); experiment: Cytotoxicity assay (WST assay), BxPC-3 cell line; format: cell-based; conditions: Example 6; copper-bound light chain 40 μM; 24 h; light chain not bound with copper ions set to 100%
Protocol: as §1, §4, §5

[7] = copper-bound light chain 12.3 μM

Molecule	Relative cell survival rate ([2]; copper-bound light chain 20 μM) [%]	Relative cell survival rate ([1]; copper-bound light chain 40 μM) [%]	Relative cell survival rate ([2]; copper-bound light chain 40 μM) [%]	Relative cell survival rate ([3]; copper-bound light chain 40 μM) [%]	further results
#4: human antibody κ type light chain, SEQ ID NO. 12; tested bound with copper ions (protein, bound copper ions; human; Human antibody kappa light chain (#4)) light: DVVMTQTPLSLSVTPGEPASISCRSTQSLLDSDGVNPSFDWYVQKPGQSPQLLIHRGFYRASGVPDRFSGSGSGTDFTLRISRVEAEDVGVYYCMQRIEFPLTFGGGTKVELKRTVAAPSVFIFPPSDEQLKSGTASVVCLLNNFYPREAKVQWKVDNALQSGNSQESVTEQDSKDSTYSLSSTLTLSKADYEKHKLYACEVTHQGLSSPVTKSFNRGEC	50.3	–	–	–	Relative cell survival rate ([1]; copper-bound light chain 25.2 μM): 81.8%; Relative cell survival rate ([1]; copper-bound light chain 34.9 μM): 79.1%; Relative cell survival rate ([3]; copper-bound light chain 4 μM): 69.6%; Relative cell survival rate ([3]; copper-bound light chain 20 μM): 42.3%; Relative cell survival rate ([3]; copper-bound light chain 40.4 μM): 24.3%; Relative cell survival rate ([4]; Example 7, Table 5, copper-bound light chain 39.4 μM): 29.5%; Relative tumor volume at 15 days after transplantation, compared to control group (PBS) [5]: about ⅓
#7VL: mutant of light chain #7, full-length SEQ ID NO. 4; tested bound with copper ions (protein, bound copper ions; human; Human antibody kappa light chain (#7 VL)) light: EIVMTQSPLSLPVTPGEPASISCRSSQSLLHSNTRNYLDWYLQKPGQSPQLLIYLGSNRASGVPDRFSGSGSGTDFTLKISRVEAEDVGVYYCMQGLQTPRTFGQGTKVEIKRTVAAPSVFIFPPSDEQLKSGTASVVCLLNNFYPREAKVQWKVDNALQSGNSQESVTEQDSKDSTYSLSSTLTLSKADYEKHKLYACEVTHQGLSSPVTKSFNRGEC	–	45.9	35.7	29.4	–
#7VL(I): mutant of light chain #7, full-length SEQ ID NO. 6; tested bound with copper ions (protein, bound copper ions; human; Human antibody kappa light chain (#7 VL(I))) light: EIVMTQSPLSLPVTPGEPASISCRSSQSLLHSNTRNYLDWYLQKPGQSPQLLIYLGSNRASGVPDRFSGSGSGTDFTLKISRVEAEDVGVYYCMQGLQTPITFGQGTKVEIKRTVAAPSVFIFPPSDEQLKSGTASVVCLLNNFYPREAKVQWKVDNALQSGNSQESVTEQDSKDSTYSLSSTLTLSKADYEKHKLYACEVTHQGLSSPVTKSFNRGEC	–	79.0	53.7	58.7	–
#7VL(RL): mutant of light chain #7, full-length SEQ ID NO. 8; tested bound with copper ions (protein, bound copper ions; human; Human antibody kappa light chain (#7 VL(RL))) light: EIVMTQSPLSLPVTPGEPASISCRSSQSLLHSNTRNYLDWYLQKPGQSPQLLIYLGSNRASGVPDRFSGSGSGTDFTLKISRVEAEDVGVYYCMQGLQTPRTFGQGTRLEIKRTVAAPSVFIFPPSDEQLKSGTASVVCLLNNFYPREAKVQWKVDNALQSGNSQESVTEQDSKDSTYSLSSTLTLSKADYEKHKLYACEVTHQGLSSPVTKSFNRGEC	–	48.0	49.4	32.4	–
#7RL I: mutant of light chain #7, full-length SEQ ID NO. 10; tested bound with copper ions (protein, bound copper ions; human; Human antibody kappa light chain (#7 RLI)) light: EIVMTQSPLSLPVTPGEPASISCRSSQSLLHSNTRNYLDWYLQKPGQSPQLLIYLGSNRASGVPDRFSGSGSGTDFTLKISRVEAEDVGVYYCMQGLQTPITFGQGTRLEIKRTVAAPSVFIFPPSDEQLKSGTASVVCLLNNFYPREAKVQWKVDNALQSGNSQESVTEQDSKDSTYSLSSTLTLSKADYEKHKLYACEVTHQGLSSPVTKSFNRGEC	–	41.9	–	–	Relative cell survival rate [6]: 77.6%; Relative cell survival rate ([4]; Example 6, copper-bound light chain 40 μM): 52.2%
#11: human antibody κ type light chain, SEQ ID NO. 14; tested bound with copper ions (protein, bound copper ions; human; Human antibody kappa light chain (#11)) light: DIVMTQTPLSLSVTPGQPASISCKSSQSLLHSDGKTYLYWYLQKPGQSPQLLLYEVSSRFSGVPDRFSGSGSGTDFTLKISRVEAEDVGVYYCMQGIHLPYTFGQGTKLEIKRTVAAPSVFIFPPSDEQLKSGTASVVCLLNNFYPREAKVQWKVDNALQSGNSQESVTEQDSKDSTYSLSSTLTLSKADYEKHKLYACEVTHQGLSSPVTKSFNRGEC	23.8	–	–	–	Relative cell survival rate [1, 7]: 73.2%; Relative cell survival rate ([1]; copper-bound light chain 20 μM): 54.5%; Relative cell survival rate [2, 7]: 58.5%
